Reference: the supplement of paper PMC9112550, “Optimization of the antimicrobial peptide Bac7 by deep mutational scanning” (BMC Biology, 2022)

tested on: Escherichia coli TOP10; assay: shrunken log2 fold change of peptide-encoding DNA abundance (4.5 h post-induction vs induction); higher = less antimicrobial activity (less host growth inhibition); details: time post-induction: 4.5 h; library: site-saturation at positions 5, 18, 19, 20
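Note: peptides expressed intracellularly from a pBAD plasmid library in pooled LB shake-flask culture, induced with 0.3% L-arabinose, DNA abundance read by NGS, three biological replicates, DESeq2 with apeglm shrinkage.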

Row | Sequence | shrunken log2 fold change
1 | RRIRGRPPRLPRPRPRPCAGPRP | 0.834
2 | RRIRWRPPRLPRPRPRPKYKPRP | -0.558
3 | RRIRQRPPRLPRPRPRPHLWPRP | 0.0824
4 | RRIRIRPPRLPRPRPRPHAIPRP | -0.21
5 | RRIRERPPRLPRPRPRPTFEPRP | 0.144
6 | RRIRHRPPRLPRPRPRPALSPRP | -0.257
7 | RRIRNRPPRLPRPRPRPRQHPRP | -0.103
8 | RRIRPRPPRLPRPRPRPWNMPRP | -0.189
9 | RRIRVRPPRLPRPRPRPHDMPRP | -0.0267
10 | RRIRYRPPRLPRPRPRPIPFPRP | -1.53
11 | RRIRVRPPRLPRPRPRPQDDPRP | -0.006
12 | RRIRVRPPRLPRPRPRPLYFPRP | -0.53
13 | RRIRDRPPRLPRPRPRPHEFPRP | 0.00812
14 | RRIRTRPPRLPRPRPRPPAIPRP | 0.0134
15 | RRIRPRPPRLPRPRPRPEWVPRP | 0.332
16 | RRIRDRPPRLPRPRPRPDELPRP | 0.414
17 | RRIRQRPPRLPRPRPRPKKHPRP | -0.236
18 | RRIRKRPPRLPRPRPRPLTEPRP | 0.397
19 | RRIRCRPPRLPRPRPRPRNWPRP | 0.366
20 | RRIRIRPPRLPRPRPRPNPIPRP | -0.155
21 | RRIRERPPRLPRPRPRPRRSPRP | -0.021
22 | RRIRCRPPRLPRPRPRPFYQPRP | -0.163
23 | RRIRSRPPRLPRPRPRPYPIPRP | -0.356
24 | RRIRFRPPRLPRPRPRPNPVPRP | -0.117
25 | RRIRGRPPRLPRPRPRPNLEPRP | 0.678

Row | Sequence | shrunken log2 fold change
26 | RRIRRRPPRLPRPRPRPSHLPRP | -0.21
27 | RRIRLRPPRLPRPRPRPAVSPRP | -0.0934
28 | RRIRDRPPRLPRPRPRPQREPRP | -0.0375
29 | RRIRPRPPRLPRPRPRPEYPPRP | 0.045
30 | RRIRERPPRLPRPRPRPLELPRP | 0.086
31 | RRIRSRPPRLPRPRPRPPKAPRP | -0.259
32 | RRIRERPPRLPRPRPRPKMCPRP | -0.149
33 | RRIRTRPPRLPRPRPRPIIKPRP | -0.67
34 | RRIRPRPPRLPRPRPRPWYWPRP | -0.161
35 | RRIRWRPPRLPRPRPRPDPFPRP | -0.0639
36 | RRIRHRPPRLPRPRPRPHCYPRP | 0.0262
37 | RRIRARPPRLPRPRPRPYYVPRP | -0.169
38 | RRIRLRPPRLPRPRPRPNGLPRP | -0.0171
39 | RRIRHRPPRLPRPRPRPLHIPRP | -0.453
40 | RRIRYRPPRLPRPRPRPCAVPRP | -0.269
41 | RRIRARPPRLPRPRPRPFAWPRP | 0.122
42 | RRIRERPPRLPRPRPRPAMSPRP | -0.0829
43 | RRIRGRPPRLPRPRPRPVRLPRP | 0.525
44 | RRIRLRPPRLPRPRPRPYRVPRP | -0.00141
45 | RRIRHRPPRLPRPRPRPQPAPRP | -0.0767
46 | RRIRDRPPRLPRPRPRPCQTPRP | 0.00442
47 | RRIRDRPPRLPRPRPRPLCKPRP | -0.224
48 | RRIRSRPPRLPRPRPRPYWNPRP | 0.503
49 | RRIRIRPPRLPRPRPRPMCHPRP | -0.316
50 | RRIRVRPPRLPRPRPRPYEWPRP | -0.303

Row | Sequence | shrunken log2 fold change
51 | RRIRVRPPRLPRPRPRPGVYPRP | -0.0713
52 | RRIRDRPPRLPRPRPRPNDFPRP | 0.239
53 | RRIRHRPPRLPRPRPRPDTSPRP | -0.0188
54 | RRIRWRPPRLPRPRPRPREDPRP | 0.532
55 | RRIRRRPPRLPRPRPRPTWLPRP | 0.633
56 | RRIRDRPPRLPRPRPRPNVCPRP | -0.0195
57 | RRIRPRPPRLPRPRPRPCHGPRP | -0.0271
58 | RRIRHRPPRLPRPRPRPIYSPRP | 0.0188
59 | RRIRDRPPRLPRPRPRPNDRPRP | -0.12
60 | RRIRNRPPRLPRPRPRPSKHPRP | -0.545
61 | RRIRIRPPRLPRPRPRPWNQPRP | 0.00812
62 | RRIRCRPPRLPRPRPRPVTVPRP | -0.484
63 | RRIRWRPPRLPRPRPRPIAVPRP | 0.187
64 | RRIRIRPPRLPRPRPRPKKVPRP | -0.291
65 | RRIRARPPRLPRPRPRPEQHPRP | 0.562
66 | RRIRFRPPRLPRPRPRPYGAPRP | -0.193
67 | RRIRGRPPRLPRPRPRPIRPPRP | 0.209
68 | RRIRPRPPRLPRPRPRPMWTPRP | 0.0739
69 | RRIRKRPPRLPRPRPRPKQQPRP | 0.0737
70 | RRIRWRPPRLPRPRPRPVSDPRP | 0.191
71 | RRIRDRPPRLPRPRPRPFTNPRP | -0.0104
72 | RRIRQRPPRLPRPRPRPSICPRP | -0.443
73 | RRIRARPPRLPRPRPRPLFTPRP | 0.0936
74 | RRIRCRPPRLPRPRPRPTQQPRP | -0.0719
75 | RRIRDRPPRLPRPRPRPPHWPRP | 0.322

Row | Sequence | shrunken log2 fold change
76 | RRIRNRPPRLPRPRPRPPTSPRP | 0.298
77 | RRIRYRPPRLPRPRPRPPMVPRP | -0.35
78 | RRIRARPPRLPRPRPRPSKTPRP | 0.314
79 | RRIRQRPPRLPRPRPRPVWSPRP | -0.176
80 | RRIRERPPRLPRPRPRPNSVPRP | 0.0407
81 | RRIRLRPPRLPRPRPRPHVVPRP | 0.00383
82 | RRIRWRPPRLPRPRPRPCCYPRP | -0.295
83 | RRIRPRPPRLPRPRPRPTWHPRP | 0.316
84 | RRIRSRPPRLPRPRPRPDYRPRP | -0.0371
85 | RRIRGRPPRLPRPRPRPFSHPRP | -0.153
86 | RRIRNRPPRLPRPRPRPDCHPRP | 0.081
87 | RRIRNRPPRLPRPRPRPECFPRP | 0.0864
88 | RRIRPRPPRLPRPRPRPGTQPRP | 0.185
89 | RRIRGRPPRLPRPRPRPHARPRP | 0.629
90 | RRIRRRPPRLPRPRPRPCFKPRP | -0.236
91 | RRIRDRPPRLPRPRPRPASLPRP | 0.416
92 | RRIRARPPRLPRPRPRPTFDPRP | 0.399
93 | RRIRIRPPRLPRPRPRPAFGPRP | 0.209
94 | RRIRCRPPRLPRPRPRPSAWPRP | 0.0978
95 | RRIRERPPRLPRPRPRPWGQPRP | 0.115
96 | RRIRIRPPRLPRPRPRPYNEPRP | -0.0675
97 | RRIRRRPPRLPRPRPRPEMKPRP | 0.215
98 | RRIRMRPPRLPRPRPRPTQIPRP | 0.386
99 | RRIRARPPRLPRPRPRPDALPRP | 0.625
100 | RRIRWRPPRLPRPRPRPVKAPRP | 0.284

Row | Sequence | shrunken log2 fold change
101 | RRIRGRPPRLPRPRPRPKGMPRP | 0.442
102 | RRIRLRPPRLPRPRPRPSGEPRP | 0.0911
103 | RRIRKRPPRLPRPRPRPQQLPRP | 0.0814
104 | RRIRFRPPRLPRPRPRPVSHPRP | -0.266
105 | RRIRWRPPRLPRPRPRPGMGPRP | 0.525
106 | RRIRFRPPRLPRPRPRPTVWPRP | 0.19
107 | RRIRPRPPRLPRPRPRPWAGPRP | -0.0189
108 | RRIRHRPPRLPRPRPRPWLSPRP | -0.0373
109 | RRIRFRPPRLPRPRPRPRRMPRP | 0.397
110 | RRIRTRPPRLPRPRPRPALQPRP | 0.278
111 | RRIRYRPPRLPRPRPRPVRWPRP | 0.164
112 | RRIRIRPPRLPRPRPRPAKTPRP | 0.0509
113 | RRIRQRPPRLPRPRPRPNNHPRP | -0.71
114 | RRIRDRPPRLPRPRPRPQVGPRP | 0.132
115 | RRIRARPPRLPRPRPRPSHHPRP | -0.309
116 | RRIRWRPPRLPRPRPRPFAGPRP | 0.0847
117 | RRIRCRPPRLPRPRPRPIPPPRP | 0.265
118 | RRIRHRPPRLPRPRPRPCCTPRP | -0.181
119 | RRIRRRPPRLPRPRPRPCVHPRP | -0.0733
120 | RRIRIRPPRLPRPRPRPADYPRP | -0.635
121 | RRIRMRPPRLPRPRPRPLTVPRP | 0.169
122 | RRIRARPPRLPRPRPRPYFPPRP | -0.418
123 | RRIRCRPPRLPRPRPRPTPRPRP | 0.987
124 | RRIRARPPRLPRPRPRPYINPRP | -0.413
125 | RRIRGRPPRLPRPRPRPWVFPRP | 0.758

Row | Sequence | shrunken log2 fold change
126 | RRIRGRPPRLPRPRPRPVTNPRP | 0.735
127 | RRIRHRPPRLPRPRPRPTNRPRP | -0.162
128 | RRIRFRPPRLPRPRPRPNCSPRP | -0.498
129 | RRIRARPPRLPRPRPRPTWSPRP | 0.67
130 | RRIRHRPPRLPRPRPRPFWTPRP | -0.766
131 | RRIRTRPPRLPRPRPRPWSYPRP | -1.86
132 | RRIRWRPPRLPRPRPRPVRFPRP | 0.0694
133 | RRIRPRPPRLPRPRPRPSQEPRP | -0.199
134 | RRIRGRPPRLPRPRPRPQACPRP | 0.27
135 | RRIRFRPPRLPRPRPRPKFWPRP | 0.265
136 | RRIRTRPPRLPRPRPRPMHYPRP | -1.41
137 | RRIRQRPPRLPRPRPRPDFGPRP | 0.0964
138 | RRIRCRPPRLPRPRPRPVGMPRP | 0.0711
139 | RRIRCRPPRLPRPRPRPCMQPRP | -0.345
140 | RRIRLRPPRLPRPRPRPVVNPRP | -0.0535
141 | RRIRHRPPRLPRPRPRPVNDPRP | -0.0193
142 | RRIRFRPPRLPRPRPRPTDCPRP | -0.0151
143 | RRIRFRPPRLPRPRPRPAAMPRP | 1.58
144 | RRIRQRPPRLPRPRPRPNVCPRP | -0.575
145 | RRIRMRPPRLPRPRPRPGSVPRP | 0.696
146 | RRIRWRPPRLPRPRPRPTPRPRP | 0.851
147 | RRIRDRPPRLPRPRPRPPWCPRP | 0.203
148 | RRIRDRPPRLPRPRPRPHDDPRP | 0.014
149 | RRIRGRPPRLPRPRPRPVMFPRP | 0.451
150 | RRIRIRPPRLPRPRPRPHTEPRP | 0.0578
